Test results published in the DeepSol protein solubility set.

assay: soluble on expression in E. coli; label from the status in PepcDB or PDB records

Sequence | soluble on expression in E. coli
AYPSFEAYSNYKVDRTDLETFLDKQKEVSLYYLLQNIAYPEGQFNNGVPGTVIASPSTSNPDYYYQWTRDSAITFLTVLSELEDNNFNTTLAKAVEYYINTSYNLQRTSNPSGSFDDENHKGLGEPKFNTDGSAYTGAWGRPQNDGPALRAYAISRYLNDVNSLNEGKLVLTDSGDINFSSTEDIYKNIIKPDLEYVIGYWDSTGFDLWEENQGRHFFTSLVQQKALAYAVDIAKSFDDGDFANTLSSTASTLESYLSGSDGGFVNTDVNHIVENPDLLQQNSRQGLDSATYIGPLLTHDIGESSSTPFDVDNEYVLQSYYLLLEDNKDRYSVNSAYSAGAAIGRYPEDVYNGDGSSEGNPWFLATAYAAQVPYKLAYDAKSASNDITINKINYDFFNKYIVDLSTINSAYQSSDSVTIKSGSDEFNTVADNLVTFGDSFLQVILDHINDDGSLNEQLNRYTGYSTGAYSLTWSSGALLEAIRLRNKVKALA | soluble
CEGGVDMQQSQVQLQCPLTPPRGLQVSIQGEAVAVRPGEDVLFVVRQEQGDVLTTKYQVDLGDGFKAMYVNLTLTGEPIRHRYESPGIYRVSVRAENTAGHDEAVLFVQV | soluble
CEVDALKGTNESLERQMREMEENFAVEAANYQDTIGRLQDEIQNMKEEMARHLREYQDLLNVKMALDIEIATYRKLLEGEESRI | soluble
CSDLPEIQNGWKTTSHTELVRGARITYQCDPGYDIVGSDTLTCQWDLSWSSDPPFCEKTEE | soluble
CTPKPKSAQPVAEEFFHNVAAQDFDAAAQLTDQDDSARELLSRSWEGLQAEGLDVSLNKVDAKDTVATAKYTLTWKLPKDRTLSYDTSMTLNRINDQWTIRWQPAAVHPKLAANQHLELRAINAERASVVSSDGAEVLVPGVQYRLIADTQHIIDKAATAQTIATHLRAARAADETVPELSASDIQQALETNRGSYSLAVVNERAGDSIKQALAGVSGIRLNKEAAMVNKDPNFAPDVIRRVSSLVNDQLAGANGWSVDAVTQDGVSMQTIERHAPQVAPAIRISLNHNVQVAAERAVNLRKDKQSMLVAIRPSTGEILAIAQSDLADKQGDLALNGQYPPGSTFKIVTASAGIQDQGLNADSIVPCPGTMNIYGRTVTNYNGFSLGNVPLEKAFARSCNTTFANISEQLNKGQLKEIGRDFGIGIDYDIPGLNTLTGSIPQGDTELARTEAGYGQGE | not soluble
CTRAVYIGPDHMVVTGRTMDWKEDIMSNIYVFPRGIQRAGYNKENAVKWTSKYGSVIATGYDIGTCDGMNEKGLVASLLFLPESVFDRPGDTRPVMGISIWTQYVLDNFATVHEAVEELKKESFRIDAPHMPNGSASTLHLAITDETGNTAVLEYLDGNLSIHEGKEFQVMTNSPRYDYQLAINDYWKEVGGLQMLPGTNRSSDRFVRASFYIHAIPQTPDAKIAVPSVLSVMRNVSVPFGITTPDKPHISSTRWRSVSDQKNKIYYFESVMTPNLFWLDLKKIDFSPKAGIKKLPLTNGKIY | not soluble
DDAYVERRVPQEMLGGHSQGDELPIHFSRSDAFERLPQPEPIRRRLVRVGSSPVHEERMVHQQIGDLCVGDTVAHARFGIGIIESLEGEGDNAKAEVSFQQVGRKRLLLRFAKLSKVEKDSI | not soluble
DDHSRALGRTTVNSNLGQGQVSGAESGAKTAEPAWIDFMQVALEGKPEQGKNIPDDIVRVRIDRNSGLLTHKVDSTSMFEYFEKGTEPTEYVGNSLEDSIYSSGSGGTTEELF | not soluble
DDLPYRFGLGKADITGEAAEVGMMGYSSLEQKTAGIHMRQWARAFVIEEAASGRRLVYVNTDLGMIFQAVHLKVLARLKAKYPGVYDENNVMLAATHTHSGPGGFSHYAMYNLSVLGFQEKTFNAIVDGIVRSIERAQARLQPGRLFYGSGELRNASRNRSLLSHLKNPDIAGYEDGIDPQMSVLSFVDANGELAGAISWFPVHSTSMTNANHLISPDNKGYASYHWEHDVSRKSGFVAAFAQTNAGNLSPNLNLKPGSGPFDNEFDNTREIGLRQFAKAYEIAGQAQEEVLGELDSRFRFVDFTRLPIRPEFTDGQPRQLCTAAIGTSLAAGSTEDGPGPLGLEEGNNPFLSALGGLLTGVPPQELVQCQAEKTILADTGNKKPYPWTPTVLPIQMFRIGQLELLGAPAEFTVMAGVRIRRAVQAASEAAGIRHVVFNGYANAYASYVTTREEYAAQEYEGGSTLYGPWTQAAYQQLFVDMAVALRERLPVETSAIAPDLSCCQMNFQTGVVADDPYIGKSFGDVLQQPRESYRIGDKVTVAFVTGHPKNDLRTEKTFLEVVNIGKDGKQTPVTVATDNDWDTQYRWERVGISASKATISWSIPPGTEPGHYYIRHYGNAKNFWTQKISEIGGSTRSFEVLGTTP | soluble
DERLELMESVDVGQTPSNVVYEENKLELLHYDAEAAGIEVPDEEKEDVPILIVYALINRPYILDLQEERSVVRRLLEAGHDVYLIDWNEPSRLDQHLTLDDYVNRYMDNCVDVVRDRSGQDAINILGYCMGGTMSVMYTALHKEKVNTLGLMAAGLCFDHTGGVLEEWGSEEYYSPQDVVDTFGNVPADMLDIGFALMDPVENYVTKYIRFAENMENEGFVENFGRMEQWLGDGIDVAGEAYVQFLEDVYQDNKLYKNELELDGKHVDLDNIDMPVLQLMGEYDHLIPPEASKPFNDVIASDDTRTIEFSTGHIGLSVSSSTHADLWPEVAEWYSER | not soluble
DGKRVWLSDDELTRFIEQAETPHQRLAFLLAGRVGLRRSEIIEVCPQDLVDGPTGDHIRVWESYAKRDKYREPPVPQEVVTIAETLAYQQDDDEPLLDVAGSTVYRWVRRAADELEEETGDRGWQYLDVHDLRRTWGTYLLEQGVIPSVVMSFGGWEDWDTFRKHYLGEFS | soluble
DGLEGMDDPDATSKKVVPLGVEIYEINGPFFFGVADRLKGVLDVIEETPKVFILRMRRVPVIDATGMHALWEFQESCEKRGTILLLSGVSDRLYGALNRFGFIEALGEERVFDHIDKALAYAKLLVETAEER | not soluble
DGNEIIGDPLRKAAKLIDKGYIVAIKGIGGIHLACDATREDVVAELRKRIFRPQKPFAIMAKDLETVRTFAYISPEEEEELTSYRRPIVALKKKEPFPLPENLAPGLHTIGVMLPYAGTHYILFHWSKTPVYVMTSANFPGMPMIKDNEEAFEKLRDVADYLLLHNRRIPNRADDSVVRFVDGRRAV | not soluble
DHYNCVSSGGQCLYSACPIFTRIQGTCYRGRARCCR | soluble
DIHRQAYAAMLHSSQSSLGTALKFFHAQSVIDNAYDQEHVHYIDRQVKTRKGMPEASADSIRALLEIDLPARGYSKIDVPCKGSDFCIIGQQHPNSAHFVAIPDYQFLDKSGFDRVVYIWPQGYTLAEEACYFYYVNQASTDSIVRGHVTQGC | not soluble
DIKMTQSPSSMYASLGERVTITCKASQDINSYLNWFQQKPGKSPKTLIYRTNRLVDGVPSRFSGSGSGQDYSLTISSLEYEDMGIYYCLQYDEFPYTFGSGTKLEIKRTVAAPSVFIFPPSDEQLKSGTASVVCLLNNFYPREAKVQWKVDNALQSGNSQESVTEQDSKDSTYSLSSTLTLSKADYEKHKVYACEVTHQGLSSPVTKSFNR | soluble
DKCKKVYENYPVSKCQLANQCNYDCKLDKHARSGECFYDEKRNLQCICDYCEY | soluble
DKELFFINVYDITASKKAERELIESEEKFKQVVELSVDGIIIGTDSGKIVDCNGAACRIFGYDKEEILKLQVIDLFPGDLNIIAHDITSCNKAAGEKTVERINQKKDGTSFPAEVAARRVKLGN | not soluble
DKPVLKDSMRLFEQLGRVKSRSMFGGFGIFVDETMFALVVNDTLHIRADDATIEKYKQQGYEPYVYKKRGFPVVTKYYALPEDCWSHPDSILNEVRAALEVAKAERETQAQAK | not soluble
DKREYFVYLPPTYGKGDNHYSVIYMQDGDIVIKILNELMDLIENKSKKDVYDESIIVGVKPIVRNDDYTPWEAEAISKGSSEFGGRGDIYLNFLIKKLKPYIDNKYRTKKEKN | not soluble
DNRLKEENPDSTLRDTEYIDVGESPDGGKYRGVILFELGQLNKTNKIEKATLSLFWYYPEESRKEDTILEVYRPEKWCEEHISWGAREINTPWKNPGGDWYDKNGVSQGSTPYSTITFKSSSLPDNRYYELDVTELVREYISGKYENTGFLIKSRAEDSDYIAFYSSEWQNKNQMPRLSIEYKNE | not soluble
